From patent US20020032310A1

Target: KGFR (keratinocyte growth factor receptor, KGFR-type isoform of the FGFR2/BEK gene) (mouse) (UniProt P21803)
Assay: cell-based or functional assay

Substance: KGF secreted from NIH 3T3 cells (from UniProt P36363 32-194) (ligand)
- Transforming Activity: 14000 ffu/pmol DNA
